Results published in US20050215470A1 (Amgen, published 2005).
Non-standard residues stand in square brackets, D forms with d. No end group written: not given here. Gly(cPent) = N[C@H](C(=O)O)C1CCCC1; Hyp = O=C(O)[C@@H]1C[C@@H](O)CN1; dTic = O=C(O)[C@H]1Cc2ccccc2CN1

T1: human bradykinin B1 receptor (human, UniProt P46663 1-353)
T1 sequence (looked up): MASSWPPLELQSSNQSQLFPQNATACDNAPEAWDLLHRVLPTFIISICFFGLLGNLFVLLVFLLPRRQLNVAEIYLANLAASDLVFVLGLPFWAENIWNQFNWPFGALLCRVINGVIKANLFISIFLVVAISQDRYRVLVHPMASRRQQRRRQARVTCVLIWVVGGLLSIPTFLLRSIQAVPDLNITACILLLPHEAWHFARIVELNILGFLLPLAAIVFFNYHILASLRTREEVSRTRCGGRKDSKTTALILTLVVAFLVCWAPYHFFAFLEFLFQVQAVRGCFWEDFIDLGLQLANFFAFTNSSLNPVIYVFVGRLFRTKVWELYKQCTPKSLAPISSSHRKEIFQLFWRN

T2: human bradykinin B2 receptor (human, UniProt P30411 1-391)
T2 sequence (looked up): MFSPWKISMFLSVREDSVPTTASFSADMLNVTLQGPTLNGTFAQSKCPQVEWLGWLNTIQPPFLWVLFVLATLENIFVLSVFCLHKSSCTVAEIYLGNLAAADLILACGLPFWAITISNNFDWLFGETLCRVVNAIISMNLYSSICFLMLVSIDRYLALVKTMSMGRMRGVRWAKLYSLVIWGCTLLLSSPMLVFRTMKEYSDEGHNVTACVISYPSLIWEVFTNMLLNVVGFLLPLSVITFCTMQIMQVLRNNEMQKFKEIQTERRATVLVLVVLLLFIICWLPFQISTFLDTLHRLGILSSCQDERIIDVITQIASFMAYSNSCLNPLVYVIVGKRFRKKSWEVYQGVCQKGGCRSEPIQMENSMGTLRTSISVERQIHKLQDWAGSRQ


Assays:
[1] = molecular target: T1, human bradykinin B1 receptor; assay: cell-based or functional assay
[2] = molecular target: T2, human bradykinin B2 receptor; assay: cell-based or functional assay
[3] = molecular target: T1, human bradykinin B1 receptor; assay: binding affinity (Ki) at the human B1 receptor; assay format not described
[4] = molecular target: T1, human bradykinin B1 receptor; assay: cell-based or functional assay; remark: listed apart in the source

Binder	hB1 IC50 (nM), functional potency [1] [nM]	antagonist activity in the hB2 FLIPR assay [2] [µM]	Ki [3] [nM]	IC50 in the hB1 aequorin assay [4] [nM]	fold increase in IC50 in the hB1 aequorin assay against the unconjugated peptide [4] [fold]
Ac-KKRP[Hyp]G[Gly(cPent)]S[dTic][Gly(cPent)] [SEQ ID NO: 37]	1	> 10	0.8		
KKRP[Hyp]G[Gly(cPent)]S[dTic][Gly(cPent)] [SEQ ID NO:36]		> 10		3	
KKRP[Hyp]G[Gly(cPent)]S[dTic][Gly(cPent)] (also: conjugated to PEG, size, linker and site not given here) [the same peptide (SEQ ID NO:36) conjugated to PEG]		> 10			~10
